The values that follow come from US6537804B1, “BCR-ABL directed compositions and uses for inhibiting Philadelphia chromesome stimulated cell growth” (Board of Regents, The University of Texas Systems, priority 1995, dated 2003).

In test [1] the target is T1, amino terminal SH2 domain of Ras Gap (Homo sapiens, UniProt P20936).
T1 construct: the amino terminal SH2 domain of Ras Gap was expressed as a fusion protein containing the glutathione S transferase protein (GST); made in house
T1 sequence (P20936 181-272 limits assumed): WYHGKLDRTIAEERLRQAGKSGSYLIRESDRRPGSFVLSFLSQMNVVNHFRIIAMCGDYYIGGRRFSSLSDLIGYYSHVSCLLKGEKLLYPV
As to the kind of experiment: Binding of phosphotyrosine tryptic peptides of Bcr-Abl to GST-Gap SH2. To be noted: phosphotyrosine tryptic peptides of p210 Bcr-Abl; no binding to GST. The text has this: The inventors have conducted studies in which the amino terminal SH2 domain of Ras Gap was expressed as a fusion protein containing the glutathione S transferase protein (GST). These studies involve mixing GST-Gap SH2 with phosphotyrosine tryptic peptides of Bcr-Abl.

Test [2] has as its target T2, c-Abl SH2 (Mus musculus, UniProt P00520).
T2 construct: The inventors performed similar studies with the SH2 domain of Abl; made in house
T2 sequence (P00520 127-217 limits assumed): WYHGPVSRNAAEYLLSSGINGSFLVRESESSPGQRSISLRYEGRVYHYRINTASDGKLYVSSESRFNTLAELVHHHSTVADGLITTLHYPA
As to the kind of experiment: Binding of phosphotyrosine tryptic peptides of Bcr-Abl to GST-Abl SH2. To be noted: phosphotyrosine tryptic peptides of p210 Bcr-Abl; no binding to GST. From the text:
FIG. 10A and FIG. 10B show an absorbed tryptic map of p210. GST-Abl SH2 binds phosphotyrosine tryptic peptide 3, which contains tyrosine 283. p210 Bcr-Abl labeled in the in vitro kinase assay from K562 cells was purified on SDS gels, digested with trypsin and the digest was split in two parts. One was absorbed with GST (FIG. 10A) and the other with GST-Abl SH2 (FIG. 10B). […] The dashed circles identify peptides lacking in the GST-Abl SH2 absorbed fractions.
The inventors performed similar studies with the SH2 domain of Abl. These were performed with a mouse c-Abl SH2 sequence, which differs by only two amino acids from the human sequence within the SH2 domain.

In test [3] the target is SH2 domain of Grb2 (Homo sapiens, UniProt P62993). The test is described as follows: Binding of Bcr peptide to Grb2. To be noted: tyrosine 177 phosphorylated peptide.
Test [4] concerns simian Grb2 protein. As to the kind of experiment: Co-immunoprecipitation of Grb2 with p160 BCR from COS1 cells, anti-Grb2 Western blotting. Type of test: binding. As to conditions: COS1 cells coexpressing p145 c-ABL(1b). How it is done: Anti-Grb2 Western blotting was performed on anti-BCR (1256-1271) antibody immunoprecipitates of lysates from COS1 cells cotransfected p145 c-ABL with either wild type p160 BCR (lanes 1 and 2) or p160 BCR (F177) (lanes 3 and 4) mutant. Lanes 2 and 4 are immunoprecipitation with pre-blocked anti-BCR (1256-1271) antibody. COS1 cells express an endogenous simian Grb2 protein detected by Western blotting (FIG. 18, lane 1). P160 BCR and p145 c-ABL(1b) were separately or simultaneously expressed in COS1 cells. Two days after transfection, cells were harvested. The cell lysates were clarified by ultracentrifugation and the supernatants were incubated with either anti-BCR c-terminal (1256-1271) antibody (FIG. 18, lanes 2, 4 and 6) or peptide preblocked antibody (FIG. 18, lanes 3, 5 and 7). The immunoprecipitated proteins were then fractionated by a 10% polyacrylamide SDS PAGE and then transferred to a p-immoblin membrane. The membrane was then blotted by an anti-Grb2 antibody (FIG. 18). In this study, p145 c-ABL was coexpressed with either wild type p160 BCR or the mutant p160 BCR(F177) in COS1 cells. Cell lysates were subjected to immunoprecipitation by anti-BCR C-terminal (1256-1271) antibody and the immunoprecipitates were analyzed by Western blotting with an anti-Grb2 antibody.
In general terms: Immunoblotting shows a protein as a band on a membrane.

The target in test [5] is T3, P210 BCR-ABL (Homo sapiens, UniProt P00519+P11274).
T3 construct: expressed in transfected cells; host or cells: COS-1
As to the kind of experiment: In vivo tyrosine phosphorylation of truncated Bcr proteins in COS-1 cells, anti-pTyr Western blot. To be noted: COS-1 cells coexpressing p210 Bcr-Abl. Type of test: cell-based. From the text:
FIG. 6A and FIG. 6B. In vivo tyrosine phosphorylation of truncated Bcr first exon sequences by Bcr-Abl. COS-1 vectors expressing Bcr150, Bcr221, and Bcr413 proteins, respectively, were expressed in COS-1 cells in the presence and absence of […].
The next tyrosine is at residue 177, and it is expected to be phosphorylated by Bcr-Abl (Puil et al., 1994). Bcr221 is tyrosine phosphorylated, but as with Bcr413, only in the presence of Bcr-Abl.
Transient transfections of COS1 cells were performed by the diethylaminoethyl (DEAE)-Dextran procedure. Transfection was initiated when COS1 cells were about 60%-80% confluent. After washing once with phosphate-buffered saline (PBS) and once with Tris-buffered Saline-0.02% Dextrose (TBS-D), cells were incubated with TBS-D containing 0.2 mg/ml DEAE-Dextran and 2 μg/ml of each added plasmid. The supernatant was then removed after 5-10 minutes when the cells started to round up and shrink.
After washing once with TBS-D and once with PBS, the cells were incubated in DMEM supplemented with 10% fetal calf serum and 100 μg/ml of chloroquine at 37° C. The chloroquine containing media was removed after 3-5 hours and the cells were washed three times with DMEM without fetal calf serum. The cells were then incubated in DMEM supplemented with 10% fetal calf serum at 37° C. for 2-3 days before harvesting.
COS-1 vectors expressing Bcr159, Bcr221, and Bcr413 proteins, respectively, were expressed in COS-1 cells in the presence and absence of p210 Bcr-Abl.

Non-standard residues stand in square brackets, D forms with d. No end group written: not given here. pY = N[C@@H](Cc1ccc(OP(=O)(O)O)cc1)C(=O)O

Sequence of SH2 domain of Grb2 (P62993 whole entry, the tested form may be a part): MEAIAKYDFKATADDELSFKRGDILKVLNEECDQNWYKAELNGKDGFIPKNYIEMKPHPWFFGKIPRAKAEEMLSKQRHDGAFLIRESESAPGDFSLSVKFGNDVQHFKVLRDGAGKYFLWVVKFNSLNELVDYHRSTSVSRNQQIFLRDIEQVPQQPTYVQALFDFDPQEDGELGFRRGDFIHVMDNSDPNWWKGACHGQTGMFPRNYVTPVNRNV
T3 sequence (P11274+P00519 fused): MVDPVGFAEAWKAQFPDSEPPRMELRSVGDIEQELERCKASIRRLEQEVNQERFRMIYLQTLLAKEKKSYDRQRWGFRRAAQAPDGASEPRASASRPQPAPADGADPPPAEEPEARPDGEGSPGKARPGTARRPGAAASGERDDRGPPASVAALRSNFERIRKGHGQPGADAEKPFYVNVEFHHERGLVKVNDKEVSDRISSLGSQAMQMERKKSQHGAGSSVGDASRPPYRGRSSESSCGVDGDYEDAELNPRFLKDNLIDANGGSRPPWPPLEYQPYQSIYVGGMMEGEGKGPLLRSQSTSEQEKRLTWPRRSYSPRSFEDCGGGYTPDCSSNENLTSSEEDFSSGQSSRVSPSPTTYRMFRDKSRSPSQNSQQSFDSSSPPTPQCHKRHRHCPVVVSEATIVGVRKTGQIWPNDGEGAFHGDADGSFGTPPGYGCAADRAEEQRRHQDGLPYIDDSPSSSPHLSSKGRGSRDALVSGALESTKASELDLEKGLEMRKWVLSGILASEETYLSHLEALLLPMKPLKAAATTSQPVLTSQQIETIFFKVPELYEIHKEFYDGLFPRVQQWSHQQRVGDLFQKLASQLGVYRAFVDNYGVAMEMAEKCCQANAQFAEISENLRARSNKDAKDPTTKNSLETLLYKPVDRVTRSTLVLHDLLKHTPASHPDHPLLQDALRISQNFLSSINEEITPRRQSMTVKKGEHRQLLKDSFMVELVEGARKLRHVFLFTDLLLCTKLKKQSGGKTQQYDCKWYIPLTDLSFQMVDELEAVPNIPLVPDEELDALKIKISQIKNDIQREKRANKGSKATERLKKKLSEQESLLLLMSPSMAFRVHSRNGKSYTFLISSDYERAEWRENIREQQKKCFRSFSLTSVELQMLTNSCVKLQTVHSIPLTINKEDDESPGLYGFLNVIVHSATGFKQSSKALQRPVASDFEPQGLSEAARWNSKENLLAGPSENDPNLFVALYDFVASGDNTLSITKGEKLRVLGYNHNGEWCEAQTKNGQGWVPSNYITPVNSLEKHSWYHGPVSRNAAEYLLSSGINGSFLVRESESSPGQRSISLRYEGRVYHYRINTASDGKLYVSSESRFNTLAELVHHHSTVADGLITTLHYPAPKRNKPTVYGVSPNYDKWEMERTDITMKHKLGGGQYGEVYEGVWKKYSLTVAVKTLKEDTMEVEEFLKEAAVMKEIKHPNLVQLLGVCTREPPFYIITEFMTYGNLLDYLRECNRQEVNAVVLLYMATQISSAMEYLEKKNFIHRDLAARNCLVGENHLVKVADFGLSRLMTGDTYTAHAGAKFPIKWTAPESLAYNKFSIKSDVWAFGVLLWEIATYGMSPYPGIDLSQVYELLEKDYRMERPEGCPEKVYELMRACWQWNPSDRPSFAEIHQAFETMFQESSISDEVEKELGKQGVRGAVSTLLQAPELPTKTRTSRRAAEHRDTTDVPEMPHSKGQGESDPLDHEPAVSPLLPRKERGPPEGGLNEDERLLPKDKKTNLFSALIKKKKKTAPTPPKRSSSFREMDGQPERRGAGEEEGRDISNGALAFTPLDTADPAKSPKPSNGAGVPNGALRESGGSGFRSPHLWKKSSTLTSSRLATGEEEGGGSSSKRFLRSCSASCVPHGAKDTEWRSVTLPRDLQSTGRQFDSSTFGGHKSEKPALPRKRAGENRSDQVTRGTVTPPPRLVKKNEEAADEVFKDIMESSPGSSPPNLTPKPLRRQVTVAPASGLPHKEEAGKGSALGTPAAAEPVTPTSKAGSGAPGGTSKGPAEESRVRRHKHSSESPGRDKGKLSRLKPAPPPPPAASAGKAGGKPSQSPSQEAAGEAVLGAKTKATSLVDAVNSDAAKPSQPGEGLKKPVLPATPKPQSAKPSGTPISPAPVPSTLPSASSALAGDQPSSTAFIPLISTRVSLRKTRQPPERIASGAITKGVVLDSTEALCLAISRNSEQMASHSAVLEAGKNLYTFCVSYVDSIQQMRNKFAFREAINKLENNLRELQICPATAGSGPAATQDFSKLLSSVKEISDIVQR

With “FLKDNLIDANGGSRPPWPPLEYQPYQSIYVGGMMEGEGK (also: phosphotyrosine, position not given here) [#3, phosphotyrosine tryptic peptide 3 of p210 Bcr-Abl]”, in test [1], the “Binding to GST-Ras Gap SH2 fusion protein” value was “specifically bound”. The “Binding to GST-Abl SH2” value in test [2] was “bind”. Consider “GHGQPGADAEKPFpY^177VNVE (GHGQPGADAEKPF[pY]VNVE) [Bcr Peptide 164-181]”, for which the “Binding to the SH2 binding site on Grb2” value in test [3] is reported as “binds”; in test [3] (listed as SEQ ID NO:8), “strongly binds”. Regarding “NSLETLLYK (NSLETLL[pY]K) [#8, phosphotyrosine tryptic peptide 8 of p210 Bcr-Abl, outside of the first exon]”, in test [1], the “Binding to GST-Ras Gap SH2 fusion protein” value is reported as “specifically bound”. Besides, the “Binding to GST-Abl SH2” value in test [2] is reported as “bind”.

B1: wild type p160 PCR: wild type full length human p160 BCR tyrosine phosphorylated by p145 c-ABL(1b) (protein)
chain: MVDPVGFAEAWKAQFPDSEPPRMELRSVGDIEQELERCKASIRRLEQEVNQERFRMIYLQTLLAKEKKSYDRQRWGFRRAAQAPDGASEPRASASRPQPAPADGADPPPAEEPEARPDGEGSPGKARPGTARRPGAAASGERDDRGPPASVAALRSNFERIRKGHGQPGADAEKPFYVNVEFHHERGLVKVNDKEVSDRISSLGSQAMQMERKKSQHGAGSSVGDASRPPYRGRSSESSCGVDGDYEDAELNPRFLKDNLIDANGGSRPPWPPLEYQPYQSIYVGGMMEGEGKGPLLRSQSTSEQEKRLTWPRRSYSPRSFEDCGGGYTPDCSSNENLTSSEEDFSSGQSSRVSPSPTTYRMFRDKSRSPSQNSQQSFDSSSPPTPQCHKRHRHCPVVVSEATIVGVRKTGQIWPNDGEGAFHGDADGSFGTPPGYGCAADRAEEQRRHQDGLPYIDDSPSSSPHLSSKGRGSRDALVSGALESTKASELDLEKGLEMRKWVLSGILASEETYLSHLEALLLPMKPLKAAATTSQPVLTSQQIETIFFKVPELYEIHKEFYDGLFPRVQQWSHQQRVGDLFQKLASQLGVYRAFVDNYGVAMEMAEKCCQANAQFAEISENLRARSNKDAKDPTTKNSLETLLYKPVDRVTRSTLVLHDLLKHTPASHPDHPLLQDALRISQNFLSSINEEITPRRQSMTVKKGEHRQLLKDSFMVELVEGARKLRHVFLFTDLLLCTKLKKQSGGKTQQYDCKWYIPLTDLSFQMVDELEAVPNIPLVPDEELDALKIKISQIKNDIQREKRANKGSKATERLKKKLSEQESLLLLMSPSMAFRVHSRNGKSYTFLISSDYERAEWRENIREQQKKCFRSFSLTSVELQMLTNSCVKLQTVHSIPLTINKEDDESPGLYGFLNVIVHSATGFKQSSNLYCTLEVDSFGYFVNKAKTRVYRDTAEPNWNEEFEIELEGSQTLRILCYEKCYNKTKIPKEDGESTDRLMGKGQVQLDPQALQDRDWQRTVIAMNGIEVKLSVKFNSREFSLKRMPSRKQTGVFGVKIAVVTKRERSKVPYIVRQCVEEIERRGMEEVGIYRVSGVATDIQALKAAFDVNNKDVSVMMSEMDVNAIAGTLKLYFRELPEPLFTDEFYPNFAEGIALSDPVAKESCMLNLLLSLPEANLLTFLFLLDHLKRVAEKEAVNKMSLHNLATVFGPTLLRPSEKESKLPANPSQPITMTDSWSLEVMSQVQVLLYFLQLEAIPAPDSKRQSILFSTEV
Take B1: the “Co-immunoprecipitation of simian Grb2 protein by anti-BCR C-terminal (1256-1271) antibody” value in test [4] is recorded as “bind specifically”.

B2: p160 BCR lacking tyrosine 177: tyrosine 177 to phenylalanine mutant of p160 BCR (protein)
chain: MVDPVGFAEAWKAQFPDSEPPRMELRSVGDIEQELERCKASIRRLEQEVNQERFRMIYLQTLLAKEKKSYDRQRWGFRRAAQAPDGASEPRASASRPQPAPADGADPPPAEEPEARPDGEGSPGKARPGTARRPGAAASGERDDRGPPASVAALRSNFERIRKGHGQPGADAEKPFFVNVEFHHERGLVKVNDKEVSDRISSLGSQAMQMERKKSQHGAGSSVGDASRPPYRGRSSESSCGVDGDYEDAELNPRFLKDNLIDANGGSRPPWPPLEYQPYQSIYVGGMMEGEGKGPLLRSQSTSEQEKRLTWPRRSYSPRSFEDCGGGYTPDCSSNENLTSSEEDFSSGQSSRVSPSPTTYRMFRDKSRSPSQNSQQSFDSSSPPTPQCHKRHRHCPVVVSEATIVGVRKTGQIWPNDGEGAFHGDADGSFGTPPGYGCAADRAEEQRRHQDGLPYIDDSPSSSPHLSSKGRGSRDALVSGALESTKASELDLEKGLEMRKWVLSGILASEETYLSHLEALLLPMKPLKAAATTSQPVLTSQQIETIFFKVPELYEIHKEFYDGLFPRVQQWSHQQRVGDLFQKLASQLGVYRAFVDNYGVAMEMAEKCCQANAQFAEISENLRARSNKDAKDPTTKNSLETLLYKPVDRVTRSTLVLHDLLKHTPASHPDHPLLQDALRISQNFLSSINEEITPRRQSMTVKKGEHRQLLKDSFMVELVEGARKLRHVFLFTDLLLCTKLKKQSGGKTQQYDCKWYIPLTDLSFQMVDELEAVPNIPLVPDEELDALKIKISQIKNDIQREKRANKGSKATERLKKKLSEQESLLLLMSPSMAFRVHSRNGKSYTFLISSDYERAEWRENIREQQKKCFRSFSLTSVELQMLTNSCVKLQTVHSIPLTINKEDDESPGLYGFLNVIVHSATGFKQSSNLYCTLEVDSFGYFVNKAKTRVYRDTAEPNWNEEFEIELEGSQTLRILCYEKCYNKTKIPKEDGESTDRLMGKGQVQLDPQALQDRDWQRTVIAMNGIEVKLSVKFNSREFSLKRMPSRKQTGVFGVKIAVVTKRERSKVPYIVRQCVEEIERRGMEEVGIYRVSGVATDIQALKAAFDVNNKDVSVMMSEMDVNAIAGTLKLYFRELPEPLFTDEFYPNFAEGIALSDPVAKESCMLNLLLSLPEANLLTFLFLLDHLKRVAEKEAVNKMSLHNLATVFGPTLLRPSEKESKLPANPSQPITMTDSWSLEVMSQVQVLLYFLQLEAIPAPDSKRQSILFSTEV
Regarding B2, the “Co-immunoprecipitation of simian Grb2 protein by anti-BCR C-terminal (1256-1271) antibody” value in test [4] is listed as “much reduced level”.

B3: Bcr159: amino acids 1-159 of Bcr, N-terminal fragment (protein)
chain: MVDPVGFAEAWKAQFPDSEPPRMELRSVGDIEQELERCKASIRRLEQEVNQERFRMIYLQTLLAKEKKSYDRQRWGFRRAAQAPDGASEPRASASRPQPAPADGADPPPAEEPEARPDGEGSPGKARPGTARRPGAAASGERDDRGPPASVAALRSNFE
In the case of B3, in test [5], the “Tyrosine phosphorylation by Bcr-Abl in cells” value is reported as “not”.
